Key:
[1] = target: IL-4 receptor (IL-4R) on C1498 tumor cells (UniProt P16382); assay: cell-based or functional assay
[2] = target: DT390IL-4 fusion protein (murine) (UniProt P00588); assay: cell-based or functional assay
Chain of UniProt P00588 (P00588 33-390, tags or fused parts left off): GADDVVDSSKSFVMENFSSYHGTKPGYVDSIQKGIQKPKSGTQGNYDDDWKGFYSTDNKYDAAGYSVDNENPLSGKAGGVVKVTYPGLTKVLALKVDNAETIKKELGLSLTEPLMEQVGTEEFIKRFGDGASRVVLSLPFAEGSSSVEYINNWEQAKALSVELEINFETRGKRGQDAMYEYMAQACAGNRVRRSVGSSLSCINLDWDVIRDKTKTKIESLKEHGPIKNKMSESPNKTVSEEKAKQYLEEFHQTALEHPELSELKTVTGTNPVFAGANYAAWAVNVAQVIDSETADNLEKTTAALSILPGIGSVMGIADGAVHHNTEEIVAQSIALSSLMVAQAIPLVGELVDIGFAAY

Chain of UniProt P16382 (P16382 26-810 limits assumed): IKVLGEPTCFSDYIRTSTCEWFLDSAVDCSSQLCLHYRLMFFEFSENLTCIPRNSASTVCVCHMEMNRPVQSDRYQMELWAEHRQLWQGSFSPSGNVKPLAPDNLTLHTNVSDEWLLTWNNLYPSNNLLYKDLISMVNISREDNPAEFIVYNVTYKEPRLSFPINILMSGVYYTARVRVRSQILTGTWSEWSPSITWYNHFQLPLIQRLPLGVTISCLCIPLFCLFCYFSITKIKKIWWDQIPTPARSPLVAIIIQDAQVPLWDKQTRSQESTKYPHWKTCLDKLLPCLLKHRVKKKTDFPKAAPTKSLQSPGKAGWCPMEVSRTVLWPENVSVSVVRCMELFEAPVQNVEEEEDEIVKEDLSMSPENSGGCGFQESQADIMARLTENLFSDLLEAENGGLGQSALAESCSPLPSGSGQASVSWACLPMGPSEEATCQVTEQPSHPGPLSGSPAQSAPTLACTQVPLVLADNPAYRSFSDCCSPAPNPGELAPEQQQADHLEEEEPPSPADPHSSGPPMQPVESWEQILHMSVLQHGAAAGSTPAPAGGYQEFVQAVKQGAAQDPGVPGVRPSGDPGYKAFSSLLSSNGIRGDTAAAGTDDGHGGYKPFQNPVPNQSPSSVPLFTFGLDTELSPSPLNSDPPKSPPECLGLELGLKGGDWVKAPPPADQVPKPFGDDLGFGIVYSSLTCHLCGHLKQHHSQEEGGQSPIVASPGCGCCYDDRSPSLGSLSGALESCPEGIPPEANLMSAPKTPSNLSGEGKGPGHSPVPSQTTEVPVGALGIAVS

Substance | viability of C1498 cells [1] [nM] | viability of IL-4R+ C1498 leukemia cells (trypan blue, live cell count) [1] [nM] | blocking of C1498 killing by DT390IL-4 [2] [µM]
DT390IL-4 fusion protein (from UniProt P00588 33-390; P07750 21-140) | 10 | 1 | –
rat IgG1 anti-mouse IL-4 monoclonal antibody (Clone 11B11) | – | – | 20

Reference: patent publication US7101542
